The source of these data is the DeepSol protein solubility set.

A short description of the data set: soluble on expression in E. coli; label from the status in PepcDB or PDB records.
For “MKLIPFPYPLNIGTDVVHLPRILRLINRPDYFHRFTRRILHEQEQRDFRTRFSLPPPSSGAEKTGLNPITPDMARWLAGRFAAKEAARKAAPAGASSLGWKDVIVRVGEADKGRPEIVYLDPMGCGETGGGRVGKLSISHDGDYVVATVLAAG”, the “soluble on expression in E. coli” value is reported as “not soluble”.

For the sequence “MKLIRGIHNLSQAPQEGCVLTIGNFDGVHRGHRALLQGLQEEGRKRNLPVMVMLFEPQPLELFATDKAPARLTRLREKLRYLAECGVDYVLCVRFDRRFAALTAQNFISDLLVKHLRVKFLAVGDDFRFGAGREGDFLLLQKAGMEYGFDITSTQTFCEGGVRISSTAVRQALADDNLALAESLLGHPFAISGRVVHGDELGRTIGFPTANVPLRRQVSPVKGVYAVEVLGLGEKPLPGVANIGTRPTVAGIRQQLEVHLLDVAMDLYGRHIQVVLRKKIRNEQRFASLDELKAQIARDELTAREFFGLTKPA”, the “soluble on expression in E. coli” value is listed as “soluble”.

As for “MKLKKLQIEPTTFCTLDCEYCHRKSIPPQDLPLEVLDRVNGVAKEYVIYGYGEPLLYPDFFKRIEGFDGKVVISTNGMLDSDILDLADKVGVSIDVNDKFRKGLEVEKALEVLRKLGERGIAEVVVTKDNLELLPAFFERIAEHGSGMLATNVVASNPAIYEQGVYFECSRITVEKVLGLDESILVEAIKDCSRGGGEALRRYKHLLKEVYSKGYSINLLAIFGRKGRVETAFKAEGVFEMLRDLAGDYGVELIEPSFFGDSKARECPYRDSAFLRVDGKISSCMSFAYTHTEYVDGHYKKVEKFCPGNVLKEDIDDVIGKMAEFERVRADMENFPWCADCPYVEGCWYAETNVDCYANLPSCSECLYSSGIAKCLLGD”, the “soluble on expression in E. coli” value was “not soluble”.

Turning to “MKLKSLDFPTGYFYFDNAAINSDKVEVIAVGYRNTDKTIKIFIEDVIHFRVVDESYFIDTFMDLISEDADRALLHENGGQSFFELLDECYAEWILKESYFPLNREFFKYYIFMFEQTFIEIIGSSATYSIIEG”, the “soluble on expression in E. coli” value is given as “not soluble”.

For “MKLLALVALCAVGVASHRDKRQLSIGTISVSGAGGSTGCVVTGNVLYANGIRLRNLTSSEQSELATYQTEVEQYKTQLRNILSQRRENLRNRLMSQGRNQQQQSNDVSSQGGNDDGSIPKAPEKPSFCTAEDTTQYYFDGCMVQGNKVYVGGQYARDLSSDEISELQTFDTQQTAYQNAVQSQMQSQVQGLFGGSDFLSALFGGDRFNQQQQRQQPSSTTPASTSSTTLPPKPTVPQFCTAIF”, the “soluble on expression in E. coli” value was “not soluble”.

Turning to “MKLLVATTNEGKYREIKEILSEYGIEVLKPEEKLEVEETGCTFLENAYLKARAYYERYKIPALADDSGLIVEAISPYPGVYSSRFYDIDFGGREEVRTNKDEANIRKLLRLLENTENRKAKFVAFIVVYGGSWGIFAEGEVRGEITKEPRGDRGFGYDPVFVPEGYNKTMAELSPEEKNKISHRGRALRKLVHVLKNCEKAF”, the “soluble on expression in E. coli” value was “soluble”.

Turning to “MKLNIKDVVLNYNIIGEGEPIIILHGYSVDHTIMFGCMENLFSDESRYKRIYVDLPGMGKSTSSDSIKTSDNMLDIILEFIMKVTKGENFLLVGESYGGYLSRGVVYKIREKVNGLFLICPAIIPDFNKRTVPEHVILAYDEKLMSKLNKEEAEEFSSMSVVQNEKIYLRFKEEVMSGIKLGNQDFLERLQREGYGFSFDVDKLPQKFDKPTLMLLGKQDASVGYKDAWNILDNYPRATFAVLDMAGHNLQIEQEDIFNLLGKEWISRTYREKDY”, the “soluble on expression in E. coli” value was “not soluble”.

“MKLNIRAQTAQNQHNNSPIVLVHGLFGSLDNLGVLARDLVNDHNIIQVDMRNHGLSPRDPVMNYPAMAQDLVDTLDAQQIDKATFIGHSMGGKAVMALTALASDRIDKLVAIDIAPVDYHVRRHDEIFAAINAVSESDAQTRQQAAAIMRQHLNEEGVIQFLLKSFVDGEWRFNVPVLWDQYPHIVGWEKIPAWDHPALFIPGGNSPYVSEQYRDDLLAQFPQARAHVIAGAGHWVHAEKPDAVLRAIRRYLND”: the “soluble on expression in E. coli” value is recorded as “not soluble”.

Regarding “MKLSLRQLQIFCAVAQHGSTTSAAISVSLSQSATSAALNELESALDTRLFDRVGKRLVLNDNGHALLPQARRMLENAQQIEASFLPGHAGLKTRLRVGCSTTIGNYVLPLILGELRQSTPHLRVDVDMANSMAIARRVADFEIDMGLIEGPCHLPELSAEPWLIDELLIAAGQRHPLALKQQVTLDDLRTAEWLLREPGSGTREEVEQLLLRHLHDLAETRQIGSSEAIKHTLAQGIGISCLSRWVVRDLLASEVLVELPHALPALTRRFFLIRHRDKYISPGLERFWEKCSQFVSQE”, the “soluble on expression in E. coli” value is “not soluble”.

Turning to “MKMKDELINLIINEGCIKFGHFVLTSGKESNYYIDIKSLITNPKALRIIAKLIKEKAEELNLNYDKIAGPELGAVPIATALSLETNKPLLIVRKKKKEHGTGKVIEGNVQKGDKVLLVEDVTTTGGSVIRAAKILREHGADVVGIFVVVDREEGAKENIEKEGFKFYPLVLVSELFKAAGISKDQS”, the “soluble on expression in E. coli” value is reported as “soluble”.

Regarding “MKMVTGAVASVLEDEATDTSDSEGSCGSEKDHFYSDDDAIEADSEGDAEPCDKENENDGESSVGTNMGWADAMAKVLNKKTPESKPTILVKNKKLEKEKEKLKQERLEKIKQRDKRLEWEMMCRVKPDVVQDKETERNLQRIATRGVVQLFNAVQKHQKNVDEKVKEAGSSMRKRAKLISTVSKKDFISVLRGMDGSTNETASSRKKPKAKQTEVKSEEGPGWTILRDDFMMGASMKDWDKESDGPDDSRPESASDSDT”, the “soluble on expression in E. coli” value is listed as “not soluble”.

“MKNAVHFGAGNIGRGFIGKLLADAEVEVTFADVDVPLVDQLSHKQEYKVKVVGTECKIDTVTHVTAVNSASEDVIDRIVKTDLVTTAVGPNVLDIIAKTIAKGIAKRFEAGNDAPLNIIACENMVRGTTHLKGEVYKHLDKSLHAKADELVGFVDSAVDRIVPPAEAANDDPLEVTVESFSEWIVDEQQFKGDIPNIAGMEKTNNLMAFVERKLFTLNTGHCITAYLGCLKGHRTIREAIEDPNIHAEVKQAMQESGEVLIRRYGFDHDMHNAYIEKILGRFANPYLVDEVDRVGRQPIRKLGANDRLVKPLLGTIEYGTENQTLLKGIAAALKYTNDTDPQAVELQTSLKEVGVTKTLAKYTGLAEDSDEVAQIETLYNQL”: the “soluble on expression in E. coli” value is given as “not soluble”.

In the case of “MKNDEVLLSIKNLKQYFNAGKKNEVRAIENISFDIYKGETLGLVGESGCGKSTTGKSIIKLNDITSGEILYEGIDIQKIRKRKDLLKFNKKIQMIFQDPYASLNPRLKVMDIVAEGIDIHHLATDKRDRKKRVYDLLETVGLSKEHANRYPHEFSGGQRQRIGIARVLAVEPEFIIADEPISALDVSIQAQVVNLLLKLQRERGITFLFIAHDLSMVKYISDRIAVMHFGKIVEIGPAEEIYQNPLHDYTKSLLSAIPQPDPESERSRKRFSYIDDEANNHLRQLHEIRPNHFVFSTEEEAAQLRENKLVTQN”, the “soluble on expression in E. coli” value is listed as “not soluble”.

Consider “MKNEVKFMSEVIKVVDVKIFPHRYLKAETTEKVLNEIYDLDGIVRVIVHGQPLPKTVPFGPARGLPVNHQDRKVIKVKGEEMELRVKVGEIIITVEGEKLEKIMDGIEEICKRNFPFGYDIYVGAFTKIKPTVTDYMKYGDISSIDPRLIGMVDASARLKDSVKMIKLEHHHHHH”, for which the “soluble on expression in E. coli” value was “soluble”.

For the sequence “MKNLIAELLFKLAQKEEESKELCAQVEALEIIVTAMLRNMAQNDQQRLIDQVEGALYEVKPDASIPDDDTELLRDYVKKLLKHPCQ”, the “soluble on expression in E. coli” value is “not soluble”.

Consider “MKNSVDRELPAELMTKLNYQGFESTEIGHPEIQRVAPKVHVSTGDNKVVDSVADVVKATVKDGMTISFHHHFRNGDFVFNQVMRAIIDAGIKDLTLAPSSLTGVMNDMVIEAIKAGTITNITSSGMRGSLGDFVSHGGLKNPVIFRSHGNRARAIEHGDIKIDVAFLGVPNADRLGNANGMAGKAVFGSLGYALMDAQYANQVVLLTDNIVAYPNTPASIKQTQVDYVVQVDQVGDPDKIGSGATRFTKDPKELKIAQTVNNVIVNSPYFKNGFSFQTGSGGAALAVTRYLRQAMLDNQIKASFALGGITKPTTDLLEEGLVDKVMDVQDFDKGAAASMHANPNQQEIDASWYADPDNKGAMVDQLDVAILSALEIDTHFNVNVMSGSDGVIRGAIGGHQDAATAKLTIISAPLVRGRLATIVPEVTTVVTPGDSIDVVVTEYGIAINPRRQDLVKALSHVPGVPVYMIEELQQLAEKKVGQPQPLEFTDRTVALIEYRDGTIIDTIKAVKDLEHHHHHH”, for which the “soluble on expression in E. coli” value was “not soluble”.

As to “MKNTFLYFRWEDLHGEIGVDSFNLLRASYSNLSEQQLVELIKELISIEREDIAAKFDIHLSENAPVFDERQHVVYKGVAGDMNYKDMLLSLVTALDLTNTLDHVQNILSLAKCLRSFDREIFARFAKDIAEEVYYSLKLEHHHHHH”, the “soluble on expression in E. coli” value is “soluble”.

With “MKPESHCVYLELSAEREHKFYEVTVEGAELTIRYGRIGTEGQTQRKSFADSAGAQAEAEKKLVEKRKKGYGDAVRGQTEKKAVEQPRLKLPRKFEPYRERIEATLRPVLLLEVLEEEPGPLGSKVGGVPYRVQGEAWPTDTEGRPLTFLAQLNFADLPPLEGYPENGILQFFIGRDDLYGCDFMRPEEGNPASFEVRWSPEPQMDLSQLDVETPDFDDDGFSPLETLRGFGLRGQQVEQPMSWCDCHFEQAIGLDLCDNSEGPEGRALGEWRQEKYDELATYGHQVGGYPSFTQEDPRTADDPRILLFQLDSEAGKITWGDVGIANFFIDPDDLARWDFSRVAYNWDCTLEHHHHHH”, the “soluble on expression in E. coli” value is recorded as “soluble”.

In the case of “MKPIDEFLYVKQNYLTSDTNSLMRLYFPIIGSDAAGLYQYFVSFFDNGEKKHKFSEILNHTQFGMACFENALSVLTAMDLLVFYRQENLYYIKLKAPLNAETFLKNAVYRHLLEQKIGQVAVEHLDLHLPREAQDLSKQFSEVFTAAGQLDLKTPKSKTDFDLDHFKDLMIRDNLQFTDEQTDVIALYILSEKYQLTWYETYLLAKETASNYRISLKRMQAKQEQRDHVDADNSFSKKEQIIIEEAKADKVEVFLAKIKKTRHAAITKDERSLLAELAEMGFLDEVINIMLLYTLDKTNTANINKTYIMKIANDFAFQKIDSAEKAVLKLRSFAERKTKQNQKKIKESSKNNVPEWSNQDYQNNTTADEQARLDEIKRKTLAR”, the “soluble on expression in E. coli” value is given as “not soluble”.

For the sequence “MKPLKRHPALIGLSRDHHHSLSLCVRLLRTPEERHRDELEPHFSELETHFREEETKFAPIWQNVAPELKQRFEKDHARLRQMMASPEYGNAAWNTAFATTLRDHARFEERELFPAAEPFLPA”, the “soluble on expression in E. coli” value was “not soluble”.

Regarding “MKPPICRRMSLPPVLAKKEGERIQVPEGGELVCYRNQEDQHLFLKIEYSRETMIKLSSSVFCYARPTGLKEVSDELPELLGLPHSIPLTDSPPNFECLPEPLAHVSGCNSHFSMNHPPPLLSPLRGPVTEADEAMRTLSSHRELQKRLQNMSMRGELSPSGCLVDSCDTPAIRQIRNPQFT”, the “soluble on expression in E. coli” value is recorded as “not soluble”.

Consider “MKPRGICFFDMDGTLLNSESKVLDTSLQALDKLRENNVIPVIATGRTLIEISHQMKITGIESAVMMNGQMAIFEGEKVYEDVIDADLLDRLTEEAKSQNVEVCYYNDKRIGATASTPVVKAHYDFLGEPMPKVRPNMYKEETINMALLLLETGDDYFPERFPELQFVRNTPFSNDVLRKGGSKAVGISKLLEVMGYQDVPTYAFGDGMNDLEMFGAVDYAIAMENAVPLLKEKADFVTKDNNSDGIMLGLKQFDLI”, for which the “soluble on expression in E. coli” value is recorded as “not soluble”.

For the sequence “MKPVFLDFEQPIAELTNKIDELRFVQDESAVDISDEIHRLQKKSNDLTKSIFSKLTPAQISQVSRHPQRPYTLDYIEALFTDFEELHGDRHFADDYAIVGGLARFNGQSVMVVGHQKGRDTKEKIRRNFGMPRPEGYRKALRLMKTAEKFGLPVMTFIDTPGAYPGIGAEERGQSEAIGKNLYELTRLRVPVLCTVIGEGGSGGALAVALGDYVNMLQYSTYSVISPEGCASILWKTAEKAADAAQALGITADRLQKLDLVDTVIKEPLGGAHRDFGQTMKNVKAVLEKQLHEAQSIPLADLLSRRFDRIMAYGKFSEQ”, the “soluble on expression in E. coli” value is on record as “not soluble”.
